Results: paper PMC9280192

Biological target: IRSp53 (insulin receptor substrate protein 53), full-length
Assay: SEC-MALS

- stoichiometry N: 2
Substance: IRSp53 (insulin receptor substrate protein 53), full-length (natural protein)
